Measured values published in US20180022780A1 (Bayer, published 2018).
Bridge positions count the residues as written; N and C are the ends. Square brackets hold non-standard residues; d marks the D form. Ends that are not written are not given here. * marks the point of attachment. Palmitoyl = CCCCCCCCCCCCCCCC(=O)*; NMeI = CC[C@H](C)[C@H](NC)C(=O)O; Orn = NCCC[C@H](N)C(=O)O; Dab = NCC[C@H](N)C(=O)O; Dap = NC[C@H](N)C(=O)O

How the values were obtained:
[1] = molecular target: human adrenomedullin-receptor (human, UniProt Q16602 23-461); assay: cell-based or functional assay
[2] = molecular target: CLR fused to EYFP with RAMP2 fused to ECFP; assay: cell-based or functional assay
Chain of CLR fused to EYFP with RAMP2 fused to ECFP (Q16602 whole entry, chain 1 of 2, the tested form may be a part): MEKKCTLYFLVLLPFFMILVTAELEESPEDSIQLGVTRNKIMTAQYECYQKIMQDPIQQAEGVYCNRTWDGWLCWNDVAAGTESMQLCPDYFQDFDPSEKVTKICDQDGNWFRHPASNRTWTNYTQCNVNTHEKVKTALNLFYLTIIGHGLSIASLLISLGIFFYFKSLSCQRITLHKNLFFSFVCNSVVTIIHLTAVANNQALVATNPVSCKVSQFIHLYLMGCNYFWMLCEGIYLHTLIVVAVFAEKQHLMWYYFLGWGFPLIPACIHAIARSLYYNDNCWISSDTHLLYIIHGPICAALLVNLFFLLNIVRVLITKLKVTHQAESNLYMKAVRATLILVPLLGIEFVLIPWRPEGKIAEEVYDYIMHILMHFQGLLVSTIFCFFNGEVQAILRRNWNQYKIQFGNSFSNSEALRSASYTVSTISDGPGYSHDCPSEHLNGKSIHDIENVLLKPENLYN
Chain of CLR fused to EYFP with RAMP2 fused to ECFP (O60895 whole entry, chain 2 of 2, further chain, the tested form may be a part): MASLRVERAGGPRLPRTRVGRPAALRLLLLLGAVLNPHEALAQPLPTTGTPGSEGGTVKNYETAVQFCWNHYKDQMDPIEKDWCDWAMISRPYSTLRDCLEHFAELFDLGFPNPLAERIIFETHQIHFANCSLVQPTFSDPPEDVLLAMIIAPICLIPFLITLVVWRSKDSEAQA

Chain of human adrenomedullin-receptor (Q16602 23-461): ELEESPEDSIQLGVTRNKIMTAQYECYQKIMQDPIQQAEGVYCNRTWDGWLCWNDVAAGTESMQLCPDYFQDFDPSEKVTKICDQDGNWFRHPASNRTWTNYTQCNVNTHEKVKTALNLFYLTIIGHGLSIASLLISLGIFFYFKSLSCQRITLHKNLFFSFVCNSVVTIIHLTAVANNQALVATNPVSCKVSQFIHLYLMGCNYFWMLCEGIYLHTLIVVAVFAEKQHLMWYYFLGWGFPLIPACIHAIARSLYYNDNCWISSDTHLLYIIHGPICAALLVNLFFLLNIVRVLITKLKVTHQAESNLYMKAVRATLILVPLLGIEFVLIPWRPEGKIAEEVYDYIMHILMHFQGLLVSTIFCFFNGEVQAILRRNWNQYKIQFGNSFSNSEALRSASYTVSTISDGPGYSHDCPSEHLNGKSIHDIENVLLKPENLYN

EC50 [nM], aequorin luminescence of CHO adrenomedullin-receptor reporter cells [1] [nM] | EC50 [nM], cAMP assay (CRE-luciferase luminescence, HEK293 cells) [2] [nM] | Binder
22 | 2 | K(Palmitoyl)G[Dap]RFGTETVQKLAHQIYQFTDKDKDNVAPRSKISPQGY-NH2 (lactam 3-8; also: acetate salt) [[K^14(PAM), (Dpr^16, E^21)lac]ADM(14-52)]
> 1000 | > 1000 | GGXRFGTXTVQKLAHQIYQFTDKDKDNVAPRSKISPQGY (positions 16 and 21 (residues 3 and 8 of the letters) together are 2,7-diaminosuberic acid (U^16→U^21, biscarba disulfide bond mimetic); X stands for the printed U; C-terminal amide) [[G^14, (U^16→U^21)]ADM(14-52)]
11 | – | KGCRFGTXTVQKLAHQIYQFTDKDKDNVAPRSKISPQGY (palmitic acid (PAM) on the N-terminus (alpha-amine of K14); positions 16 and 21 (residues 3 and 8 of the letters) together are cystathionine (C^16→U^21, thioether); X stands for the printed U at 21; C-terminal amide) [PAM[K^14, (C^16→U^21)]ADM(14-52)]
24 | – | KGCRFGTXTVQKLAHQIYQFTDKDKDNVAPRSKISPQGY (palmitic acid (PAM) on the side chain of K14 (residue 1 of the letters); positions 16 and 21 (residues 3 and 8) together are cystathionine (C^16→U^21, thioether); X stands for the printed U at 21; C-terminal amide) [[K^14(PAM), (C^16→U^21)]ADM(14-52)]
32 | 150 | K(Palmitoyl)GERFGTKTVQKLAHQIYQFTDKDKDNVAPRSK[NMeI]SPQGY-NH2 (lactam 3-8) [[K^14(PAM), (E^16,K^21)lac, N-Me-I^47]ADM(14-52)]
0.81 | 29 | K(Palmitoyl)GERFGTKTVQKLAHQIYQFTDKDKDNVAPRSKISPQGY-NH2 (lactam 3-8; N-terminus assumed; SMILES CCCCCCCCCCCCCCCC(=O)NCCCC[C@H](N)C(=O)NCC(=O)N[C@H]1CCC(=O)NCCCC[C@@H](C(=O)N[C@H](C(=O)N[C@H](C(=O)N[C@@H](CCC(N)=O)C(=O)N[C@@H](CCCCN)C(=O)N[C@@H](CC(C)C)C(=O)N[C@@H](C)C(=O)N[C@@H](Cc2c[nH]cn2)C(=O)N[C@@H](CCC(N)=O)C(=O)N[C@H](C(=O)N[C@@H](Cc2ccc(O)cc2)C(=O)N[C@@H](CCC(N)=O)C(=O)N[C@@H](Cc2ccccc2)C(=O)N[C@H](C(=O)N[C@@H](CC(=O)O)C(=O)N[C@@H](CCCCN)C(=O)N[C@@H](CC(=O)O)C(=O)N[C@@H](CCCCN)C(=O)N[C@@H](CC(=O)O)C(=O)N[C@@H](CC(N)=O)C(=O)N[C@H](C(=O)N[C@@H](C)C(=O)N2CCC[C@H]2C(=O)N[C@@H](CCCNC(=N)N)C(=O)N[C@@H](CO)C(=O)N[C@@H](CCCCN)C(=O)N[C@H](C(=O)N[C@@H](CO)C(=O)N2CCC[C@H]2C(=O)N[C@@H](CCC(N)=O)C(=O)NCC(=O)N[C@@H](Cc2ccc(O)cc2)C(N)=O)[C@@H](C)CC)C(C)C)[C@@H](C)O)[C@@H](C)CC)C(C)C)[C@@H](C)O)NC(=O)[C@H]([C@@H](C)O)NC(=O)CNC(=O)[C@H](Cc2ccccc2)NC(=O)[C@H](CCCNC(=N)N)NC1=O) [[K^14(PAM), (E^16, K^21)lac]ADM(14-52)]
> 1000 | 156 | K(Palmitoyl)GKRFGTETVQKLAHQIYQFTDKDKDNVAPRSKISPQGY-NH2 (lactam 3-8; N-terminus assumed; SMILES CCCCCCCCCCCCCCCC(=O)NCCCC[C@H](N)C(=O)NCC(=O)N[C@H]1CCCCNC(=O)CC[C@@H](C(=O)N[C@H](C(=O)N[C@H](C(=O)N[C@@H](CCC(N)=O)C(=O)N[C@@H](CCCCN)C(=O)N[C@@H](CC(C)C)C(=O)N[C@@H](C)C(=O)N[C@@H](Cc2c[nH]cn2)C(=O)N[C@@H](CCC(N)=O)C(=O)N[C@H](C(=O)N[C@@H](Cc2ccc(O)cc2)C(=O)N[C@@H](CCC(N)=O)C(=O)N[C@@H](Cc2ccccc2)C(=O)N[C@H](C(=O)N[C@@H](CC(=O)O)C(=O)N[C@@H](CCCCN)C(=O)N[C@@H](CC(=O)O)C(=O)N[C@@H](CCCCN)C(=O)N[C@@H](CC(=O)O)C(=O)N[C@@H](CC(N)=O)C(=O)N[C@H](C(=O)N[C@@H](C)C(=O)N2CCC[C@H]2C(=O)N[C@@H](CCCNC(=N)N)C(=O)N[C@@H](CO)C(=O)N[C@@H](CCCCN)C(=O)N[C@H](C(=O)N[C@@H](CO)C(=O)N2CCC[C@H]2C(=O)N[C@@H](CCC(N)=O)C(=O)NCC(=O)N[C@@H](Cc2ccc(O)cc2)C(N)=O)[C@@H](C)CC)C(C)C)[C@@H](C)O)[C@@H](C)CC)C(C)C)[C@@H](C)O)NC(=O)[C@H]([C@@H](C)O)NC(=O)CNC(=O)[C@H](Cc2ccccc2)NC(=O)[C@H](CCCNC(=N)N)NC1=O) [[K^14(PAM), (K^16,E^21)lac]ADM(14-52)]

The next lines start with the binder.

Binder | EC50 [nM], aequorin luminescence of CHO adrenomedullin-receptor reporter cells [1] [nM] | EC50 [nM], cAMP assay (CRE-luciferase luminescence, HEK293 cells) [2] [nM]
GGERFGT[Dab]TVQKLAHQIYQFTDKDKDNVAPRSKISPQGY-NH2 (lactam 3-8) [[G^14, (E^16, Dab^21)lac]ADM(14-52)] | 19.6 | 41
GG[Dab]RFGTETVQKLAHQIYQFTDKDKDNVAPRSKISPQGY-NH2 (lactam 3-8; N-terminus assumed; SMILES CC[C@H](C)[C@H](NC(=O)[C@H](CCC(N)=O)NC(=O)[C@H](Cc1c[nH]cn1)NC(=O)[C@H](C)NC(=O)[C@H](CC(C)C)NC(=O)[C@H](CCCCN)NC(=O)[C@H](CCC(N)=O)NC(=O)[C@@H](NC(=O)[C@@H](NC(=O)[C@@H]1CCC(=O)NCC[C@H](NC(=O)CNC(=O)CN)C(=O)N[C@@H](CCCNC(=N)N)C(=O)N[C@@H](Cc2ccccc2)C(=O)NCC(=O)N[C@@H]([C@@H](C)O)C(=O)N1)[C@@H](C)O)C(C)C)C(=O)N[C@@H](Cc1ccc(O)cc1)C(=O)N[C@@H](CCC(N)=O)C(=O)N[C@@H](Cc1ccccc1)C(=O)N[C@H](C(=O)N[C@@H](CC(=O)O)C(=O)N[C@@H](CCCCN)C(=O)N[C@@H](CC(=O)O)C(=O)N[C@@H](CCCCN)C(=O)N[C@@H](CC(=O)O)C(=O)N[C@@H](CC(N)=O)C(=O)N[C@H](C(=O)N[C@@H](C)C(=O)N1CCC[C@H]1C(=O)N[C@@H](CCCNC(=N)N)C(=O)N[C@@H](CO)C(=O)N[C@@H](CCCCN)C(=O)N[C@H](C(=O)N[C@@H](CO)C(=O)N1CCC[C@H]1C(=O)N[C@@H](CCC(N)=O)C(=O)NCC(=O)N[C@@H](Cc1ccc(O)cc1)C(N)=O)[C@@H](C)CC)C(C)C)[C@@H](C)O) [[G^14, (Dab^16, E^21)lac]ADM(14-52)] | 34 | 84
GGERFGTKTVQKLAHQIYQFTDKDKDNVAPRSKISPQGY-NH2 (lactam 3-8; N-terminus assumed; SMILES CC[C@H](C)[C@H](NC(=O)[C@H](CCC(N)=O)NC(=O)[C@H](Cc1c[nH]cn1)NC(=O)[C@H](C)NC(=O)[C@H](CC(C)C)NC(=O)[C@H](CCCCN)NC(=O)[C@H](CCC(N)=O)NC(=O)[C@@H](NC(=O)[C@@H](NC(=O)[C@@H]1CCCCNC(=O)CC[C@H](NC(=O)CNC(=O)CN)C(=O)N[C@@H](CCCNC(=N)N)C(=O)N[C@@H](Cc2ccccc2)C(=O)NCC(=O)N[C@@H]([C@@H](C)O)C(=O)N1)[C@@H](C)O)C(C)C)C(=O)N[C@@H](Cc1ccc(O)cc1)C(=O)N[C@@H](CCC(N)=O)C(=O)N[C@@H](Cc1ccccc1)C(=O)N[C@H](C(=O)N[C@@H](CC(=O)O)C(=O)N[C@@H](CCCCN)C(=O)N[C@@H](CC(=O)O)C(=O)N[C@@H](CCCCN)C(=O)N[C@@H](CC(=O)O)C(=O)N[C@@H](CC(N)=O)C(=O)N[C@H](C(=O)N[C@@H](C)C(=O)N1CCC[C@H]1C(=O)N[C@@H](CCCNC(=N)N)C(=O)N[C@@H](CO)C(=O)N[C@@H](CCCCN)C(=O)N[C@H](C(=O)N[C@@H](CO)C(=O)N1CCC[C@H]1C(=O)N[C@@H](CCC(N)=O)C(=O)NCC(=O)N[C@@H](Cc1ccc(O)cc1)C(N)=O)[C@@H](C)CC)C(C)C)[C@@H](C)O) [[G^14, (E^16, K^21)lac]ADM(14-52)] | 20.5 | 31
GGERFGT[Orn]TVQKLAHQIYQFTDKDKDNVAPRSKISPQGY-NH2 (lactam 3-8) [[G^14, (E^16, Orn^21)lac]ADM(14-52)] | > 1000 | 21
GGCRFGTXTVQKLAHQIYQFTDKDKDNVAPRSKISPQGY (positions 16 and 21 (residues 3 and 8 of the letters) together are cystathionine (C^16→U^21, thioether disulfide bond mimetic); X stands for the printed U at 21; C-terminal amide) [[G^14, (C^16→U^21)]ADM(14-52)] | 0.07 | 3.3
GGXRFGTCTVQKLAHQIYQFTDKDKDNVAPRSKISPQGY (positions 16 and 21 (residues 3 and 8 of the letters) together are cystathionine (U^16→C^21, thioether disulfide bond mimetic); X stands for the printed U at 16; C-terminal amide) [[G^14, (U^16→C^21)]ADM(14-52)] | 1.54 | 6.8
GGKRFGTETVQKLAHQIYQFTDKDKDNVAPRSKISPQGY-NH2 (lactam 3-8; N-terminus assumed; SMILES CC[C@H](C)[C@H](NC(=O)[C@H](CCC(N)=O)NC(=O)[C@H](Cc1c[nH]cn1)NC(=O)[C@H](C)NC(=O)[C@H](CC(C)C)NC(=O)[C@H](CCCCN)NC(=O)[C@H](CCC(N)=O)NC(=O)[C@@H](NC(=O)[C@@H](NC(=O)[C@@H]1CCC(=O)NCCCC[C@H](NC(=O)CNC(=O)CN)C(=O)N[C@@H](CCCNC(=N)N)C(=O)N[C@@H](Cc2ccccc2)C(=O)NCC(=O)N[C@@H]([C@@H](C)O)C(=O)N1)[C@@H](C)O)C(C)C)C(=O)N[C@@H](Cc1ccc(O)cc1)C(=O)N[C@@H](CCC(N)=O)C(=O)N[C@@H](Cc1ccccc1)C(=O)N[C@H](C(=O)N[C@@H](CC(=O)O)C(=O)N[C@@H](CCCCN)C(=O)N[C@@H](CC(=O)O)C(=O)N[C@@H](CCCCN)C(=O)N[C@@H](CC(=O)O)C(=O)N[C@@H](CC(N)=O)C(=O)N[C@H](C(=O)N[C@@H](C)C(=O)N1CCC[C@H]1C(=O)N[C@@H](CCCNC(=N)N)C(=O)N[C@@H](CO)C(=O)N[C@@H](CCCCN)C(=O)N[C@H](C(=O)N[C@@H](CO)C(=O)N1CCC[C@H]1C(=O)N[C@@H](CCC(N)=O)C(=O)NCC(=O)N[C@@H](Cc1ccc(O)cc1)C(N)=O)[C@@H](C)CC)C(C)C)[C@@H](C)O) [[G^14, (K^16, E^21)lac]ADM(14-52)] | > 1000 | > 1000
